# Reference: PMC7483736, “Catalytic specificity of the Lactobacillus plantarum cystathionine γ-lyase presumed by the crystallographic analysis” (Scientific Reports, 2020)
# Substitutions are numbered along the chain they refer to. In names and notes the source's numbering stands.
# B1: L. plantarum CGL (Lactiplantibacillus plantarum WCFS1) (protein)
# chain: MKFETQLIHGGISEDATTGATSVPIYMASTFRQTKIGQNQYEYSRTGNPTRAAVEALIATLEHGSAGFAFASGSAAINTVFSLFSAGDHIIVGNDVYGGTFRLIDAVLKHFGMTFTAVDTRDLAAVEAAITPTTKAIYLETPTNPLLHITDIAAIAKLAQAHDLLSIIDNTFASPYVQKPLDLGVDIVLHSASKYLGGHSDVIGGLVVTKTPALGEKIGYLQNAIGSILAPQESWLLQRGMKTLALRMQAHLNNAAKIFTYLKSHPAVTKIYYPGDPDNPDFSIAKQQMNGFGAMISFELQPGMNPQTFVEHLQVITLAESLGALESLIEIPALMTHGAIPRTIRLQNGIKDELIRLSVGVEASDDLLADLERGFASIQAD
# notes: C-terminal His6 tag (kept), pET-21a(+), E. coli BL21(DE3); homotetramer, active site between two subunits; PCR primers (translated) give N-terminus … and C-terminus FASIQAD before LE-His6
# B2: L. plantarum CGL (Lactiplantibacillus plantarum WCFS1; Y97F) (protein)
# chain: B1 chain with Y97F
# notes: as for B1
# Key:
# L. plantarum CGL [1] = target: T1, L. plantarum CGL (Lactiplantibacillus plantarum, UniProt F9UT53, K194A); assay: X-ray crystal structure, […] Å; type: binding; conditions: covalent; external aldimine with PLP at active site, inactive mutant
# T1 construct: gene cblB; C-terminal His6 tag (kept), pET-21a(+), E. coli BL21(DE3); homotetramer, active site between two subunits; PCR primers (translated) give N-terminus MRTLTMKFETQ and C-terminus FASIQAD before LE-His6
# T1 sequence (F9UT53 entry or part of it K194A): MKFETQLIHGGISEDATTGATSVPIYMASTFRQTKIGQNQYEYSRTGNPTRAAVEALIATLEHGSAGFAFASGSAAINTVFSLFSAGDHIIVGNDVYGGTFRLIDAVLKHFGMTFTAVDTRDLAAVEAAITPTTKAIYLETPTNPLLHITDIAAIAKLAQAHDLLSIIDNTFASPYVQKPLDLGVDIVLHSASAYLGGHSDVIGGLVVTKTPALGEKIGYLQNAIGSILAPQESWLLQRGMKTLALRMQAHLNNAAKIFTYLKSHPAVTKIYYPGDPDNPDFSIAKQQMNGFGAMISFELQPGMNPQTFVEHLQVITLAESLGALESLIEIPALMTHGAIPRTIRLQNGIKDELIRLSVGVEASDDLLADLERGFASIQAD
# [2] = target: K194A mutant of L. plantarum CGL (cystathionine γ-lyase from Lactobacillus plantarum SN35N) (Lactobacillus plantarum SN35N); assay: crystal structure; K194A CGL at 9 mg/mL with PLP and 2 mM cystathionine or 2 mM L-serine; sitting-drop vapor diffusion, precipitant 0.4 M KH2PO4 and 0.4 M Na2HPO4; tetramer seen in the crystal
# L. plantarum CGL [3] = target: T1, L. plantarum CGL; assay: X-ray crystal structure, […] Å; type: binding; conditions: covalent; external aldimine with PLP, substrate analogue, phosphate at distal carboxyl site
# H2S release as PbS, A390 [4] = substrate: N[C@@H](CCS)C(=O)O; assay: H2S release as PbS, A390; type: biochemical, Lactiplantibacillus plantarum; conditions: L-homocysteine gamma-lyase
# Source text: (§1) H2S release as PbS, A390 on L. plantarum CGL
# H2S release as PbS, A390 [5] = substrate: N[C@@H](CS)C(=O)O; assay: H2S release as PbS, A390; type: biochemical, Lactiplantibacillus plantarum; conditions: L-cysteine beta-lyase, 100 mM HEPES-KOH pH 7.5, 5 mM TCEP, 0.4 mM lead(II) nitrate, 37 °C
# Source text: as §1
# DTNB thiol release, A412 = substrate: N[C@@H](CCSC[C@H](N)C(=O)O)C(=O)O; assay: DTNB thiol release, A412; type: biochemical, Lactiplantibacillus plantarum; conditions: cystathionase, 100 mM HEPES-KOH pH 7.5, 0.5 mM DTNB, 37 °C
# Source text: DTNB thiol release, A412 on L. plantarum CGL
# [6] = substrate: N[C@@H](CSSC[C@H](N)C(=O)O)C(=O)O; assay: lactate dehydrogenase-coupled pyruvate formation, NADH A340; type: biochemical, Lactiplantibacillus plantarum; conditions: L-cystine beta-lyase, 100 mM HEPES-KOH pH 7.5, 0.2 mM NADH, 37 °C
# Source text: lactate dehydrogenase-coupled pyruvate formation, NADH A340 on L. plantarum CGL
# [7] = 100 mM HEPES-KOH pH 7.5, 5 mM TCEP, 0.4 mM lead(II) nitrate, 37 °C
# [8] = buffer same, fitted with substrate inhibition, called inaccurate by authors
molecule,measurement,setting,value
N[C@@H](CCSC[C@H](N)C(=O)O)C(=O)O [cystathionine],"X-ray crystal structure, 3.10 Å",L. plantarum CGL [1],Cystathionine was found in the crystal structure as a part of the external aldimine
K194A mutant of L. plantarum CGL (cystathionine γ-lyase from Lactobacillus plantarum SN35N) (enzyme),stoichiometry N,[2],4
N[C@@H](CO)C(=O)O [L-serine],"X-ray crystal structure, 2.75 Å",L. plantarum CGL [3],L-serine was also found as part of the external aldimine formed with PLP
B1,Km,"H2S release as PbS, A390 [4]; [7]",6300 ± 700 µM
same,kcat,"H2S release as PbS, A390 [4]; [7]",0.081 ± 0.004 s⁻¹
same,kcat/Km,"H2S release as PbS, A390 [4]; [7]",13 ± 1 M⁻¹ s⁻¹
same,Km,"H2S release as PbS, A390 [5]",35000 ± 6000 µM
same,kcat,"H2S release as PbS, A390 [5]",0.3 ± 0.03 s⁻¹
same,kcat/Km,"H2S release as PbS, A390 [5]",8.6 ± 1.8 M⁻¹ s⁻¹
same,Km,"DTNB thiol release, A412",450 ± 10 µM
same,kcat,"DTNB thiol release, A412",0.49 ± 0.01 s⁻¹
same,kcat/Km,"DTNB thiol release, A412",1100 ± 100 M⁻¹ s⁻¹
same,Km,[6],120 ± 10 µM
same,kcat,[6],0.12 ± 0.01 s⁻¹
same,kcat/Km,[6],1000 ± 100 M⁻¹ s⁻¹
B2,Km,"H2S release as PbS, A390 [4]; [8]",1200 ± 800 µM
same,kcat,"H2S release as PbS, A390 [4]; [8]",0.042 ± 0.02 s⁻¹
same,kcat/Km,"H2S release as PbS, A390 [4]; [8]",35 ± 27 M⁻¹ s⁻¹
same,Km,"H2S release as PbS, A390 [5]; pH 7.5",160 ± 30 µM
same,kcat,"H2S release as PbS, A390 [5]; pH 7.5",0.015 ± 0.001 s⁻¹
same,kcat/Km,"H2S release as PbS, A390 [5]; pH 7.5",96 ± 18 M⁻¹ s⁻¹
same,Km,"DTNB thiol release, A412",770 ± 210 µM
same,kcat,"DTNB thiol release, A412",0.0056 ± 0.0007 s⁻¹
same,kcat/Km,"DTNB thiol release, A412",7.2 ± 2.2 M⁻¹ s⁻¹
same,Km,[6],56 ± 9 µM
same,kcat,[6],0.1 ± 0.01 s⁻¹
same,kcat/Km,[6],1800 ± 300 M⁻¹ s⁻¹
